Measurements reported in patent US20140343258A1 (Astellas, published 2014).
Residue numbers refer to the chain shown, from its start.

T1: human CTGF (human, UniProt P29279 27-349)
T1 construct: also called human CTGF protein; connective tissue growth factor
T1 sequence: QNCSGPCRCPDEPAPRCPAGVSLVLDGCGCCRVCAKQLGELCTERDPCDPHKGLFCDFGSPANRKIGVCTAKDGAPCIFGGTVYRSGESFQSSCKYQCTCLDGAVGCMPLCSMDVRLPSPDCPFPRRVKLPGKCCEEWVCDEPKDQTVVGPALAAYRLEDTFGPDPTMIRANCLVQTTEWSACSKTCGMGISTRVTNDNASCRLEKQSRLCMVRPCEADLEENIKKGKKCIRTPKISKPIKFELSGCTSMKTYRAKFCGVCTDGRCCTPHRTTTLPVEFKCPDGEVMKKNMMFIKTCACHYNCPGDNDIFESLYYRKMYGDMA

T2: rat CTGF (rat, UniProt Q9R1E9 25-347)
T2 construct: mature
T2 sequence (looked up): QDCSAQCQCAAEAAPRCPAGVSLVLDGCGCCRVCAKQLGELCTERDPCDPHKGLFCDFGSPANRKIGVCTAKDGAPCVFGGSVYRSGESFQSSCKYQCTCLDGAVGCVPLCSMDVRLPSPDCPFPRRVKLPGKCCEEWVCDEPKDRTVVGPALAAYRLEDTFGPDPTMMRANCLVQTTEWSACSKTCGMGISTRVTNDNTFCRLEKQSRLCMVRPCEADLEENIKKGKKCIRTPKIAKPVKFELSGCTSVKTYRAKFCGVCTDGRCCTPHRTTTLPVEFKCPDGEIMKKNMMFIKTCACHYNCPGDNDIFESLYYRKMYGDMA

T3: mouse CTGF (mouse, UniProt P29268 26-348)
T3 construct: mature
T3 sequence (looked up): T2 sequence (looked up) with R16H, V148A

B1: 37-45 (antibody, V domains shown)
VH: QVQLVQSGAEVKKPGASVKVSCKASGYTFTGYYMYWVRQAPGQGLEWMGWINPNSGGTNYSQKFQGRVTMTRDTSISTAYMELSRLRSDDTALYYCARGSKWNYPFDYWGQGTLVTVSS
VL: EIVLTQSPGTLSLSPGERATLSCRASQSVSSSYLAWYQQKPGQAPRLLIYGASRRATGIPDRFSGSGSGTDFTLTISRLEPEDFVVYFCQQYVSTPWTFGQGTKVEIKR
notes: also called 37-45 antibody
B2: fully human 37-45 (antibody, human IgG1, kappa, V domains shown)
VH: B1 VH
VL: B1 VL
notes: Human Ig gamma1 and human kappa constant regions, expressed in CHO-K1SV cells; The heavy-chain variable region has an N-glycosylation motif at Asn 58 (Kabat)
B3: fully human 37-45-MH1 (antibody, human IgG1, kappa, V domains shown)
VH: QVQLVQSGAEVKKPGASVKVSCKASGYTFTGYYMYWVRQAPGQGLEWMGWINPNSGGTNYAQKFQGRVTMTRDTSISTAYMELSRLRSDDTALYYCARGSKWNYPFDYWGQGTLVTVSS
VL: B1 VL
notes: It has the same light chain as fully human 37-45; Human IgG1/kappa

Legend:
human CTGF [1] = molecular target: T1, human CTGF; assay: ELISA, human CTGF immobilized on the plate, HRP anti-mouse IgG detection
Protocol: The present inventors evaluated the binding specificity of the antibody for CTGF using an ELISA method. 20 μL of PBS solution of human CTGF (1 μg/mL) was added to a Maxisorp 384 plate (Nunc, Inc.), and immobilized by being incubated overnight at 4° C. The next day, the plate was washed once with 100 μL of washing solution (TPBS: 0.05% Tween-20-containing PBS), and then 100 μL of blocking agent (1% BSA-containing PBS) was added thereto and allowed to stand at room temperature for 1 hour. After washing once with 100 μL of TBST washing solution, a series of appropriate dilutions of the purified antibody sample were prepared and added to the plate. After incubation at room temperature for 1 hour, the plate was washed three times with 100 μL of TBST washing solution, and a goat anti-mouse IgG antibody labeled with a horseradish peroxidase (HRP-goat anti-mouse IgG antibody; Zymed Laboratories, Inc.) which was diluted 5000-fold with a 0.1% BSA-containing TBST washing solution (20 μL) was added thereto. […] After adding 40 μL of TMB chromogenic reagent (Sumitomo Bakelite Co., Ltd.) thereto and allowing it to stand at room temperature for 10 minutes, 40 μL of stopping solution (2 mol/L sulfuric acid) was added thereto to stop the reaction, and the absorbance at 450 nm was measured. Each of the antibodies was tested in duplicate, and the EC50 was analyzed by curve fitting.

rat CTGF = molecular target: T2, rat CTGF; assay: ELISA, CTGF immobilized on the plate, HRP anti-human IgG detection
Protocol: (§1) The present inventors evaluated the binding specificity of the antibody for CTGF using an ELISA method. 20 μL of PBS solution of human CTGF (1 μg/mL) was added to a Maxisorp 384 plate (Nunc, Inc.), and immobilized by being incubated overnight at 4° C. The next day, the plate was washed once with 100 μL of washing solution (TPBS: 0.05% Tween-20-containing PBS), and then 100 μL of blocking agent (1% BSA-containing PBS) was added thereto and allowed to stand at room temperature for 1 hour. After washing once with 100 μL of TBST washing solution, a series of appropriate dilutions of the purified antibody sample were prepared and added to the plate. After incubation at room temperature for 1 hour, the plate was washed three times with 100 μL of TBST washing solution, and a goat anti-mouse IgG antibody labeled with a horseradish peroxidase (HRP-goat anti-mouse IgG antibody; Zymed Laboratories, Inc.) which was diluted 5000-fold with a 0.1% BSA-containing TBST washing solution (20 μL) was added thereto. After incubation at room temperature for 1 hour, the plate was washed three times with 100 μL of TBST washing solution. After adding 40 μL of TMB chromogenic reagent (Sumitomo Bakelite Co., Ltd.) thereto and allowing it to stand at room temperature for 10 minutes, 40 μL of stopping solution (2 mol/L sulfuric acid) was added thereto to stop the reaction, and the absorbance at 450 nm was measured. Each of the antibodies was tested in duplicate, and the EC50 was analyzed by curve fitting.
(§2) The present inventors evaluated the binding specificity of fully human 37-45 and fully human 37-45-MH1 prepared in the above Examples to human, mouse, rat and monkey CTGF using an ELISA method. Here, the same method as described in Example 4 was used, but a rabbit anti-human IgG antibody labeled with horseradish peroxidase (HRP-rabbit anti-human IgG antibody; DAKO) which was 5000-fold diluted with a 0.1% BSA-containing TBST washing solution as a secondary antibody. The test on each antibody was carried out in duplicate and EC50 was analyzed by curve fitting.

monkey CTGF = molecular target: T4, monkey CTGF (monkey); assay: as above
T4 construct: mature
Protocol: as §1, §2

human CTGF [2] = molecular target: T1, human CTGF; assay: as above
Protocol: as §1, §2

mouse CTGF = molecular target: T3, mouse CTGF; assay: as above
Protocol: as §1, §2

human CTGF [3] = molecular target: T1, human CTGF; assay: SPR, Biacore 2000, comparison of KD with the reference antibody CLN1
Text: (§3) In order to measure the antigen-specific binding activity of fully human 37-45-MH1 in more detail, the present inventors carried out surface plasmon resonance (SPR) analysis. In the present Example, an anti-human CTGF antibody CLN1 (Patent Document 2) was used as a comparative antibody.
(§4) In the SPR analysis, Biacore 2000 (GE Healthcare Japan) was used to carry out analysis. An anti-CTGF antibody was immobilized on the surface of a Sensor Chip CM5 using a Human Antibody Capture Kit and an Amine Coupling Kit (GE Healthcare Japan). Serial dilution of the human CTGF acquired in Example 1 was made by HBS-EP solution (GE Healthcare Japan). 100 μL of the dilution was added to flow path at flow rate 50 μl/min. By this measurement system, the association rate constant (ka), the dissociation rate constant (kd), and the dissociation constant (KD) between the human CTGF protein and the anti-CTGF antibody were calculated using a data analysis software (BIA Evaluation).

human CTGF [4] = molecular target: T1, human CTGF; assay: SPR, Biacore 2000, antibody captured on CM5 chip (Human Antibody Capture Kit), human CTGF as analyte
Text: as §3, §4

Binder | EC50 (human CTGF [1]) [µg/mL] | EC50 (rat CTGF) [µg/mL] | EC50 (monkey CTGF) [µg/mL] | EC50 (human CTGF [2]) [µg/mL] | EC50 (mouse CTGF) [µg/mL] | fold binding activity against CLN1 (human CTGF [3]) [times] | Kd (human CTGF [4]) [nM] | koff (human CTGF [4]) [s⁻¹]
B1 | 0.0016 |  |  |  |  |  |  | 
B2 |  | 0.0131 | 0.0125 | 0.0132 | 0.0124 |  |  | 
B3 |  | 0.0092 | 0.0086 | 0.0104 | 0.0092 | ≥ 12 | 0.037 | 0.00016
